Data taken from patent US11155793B2, “Phytase variants YeAPPA having improved gastric protein resistance and acid resistance, and increased catalytic efficiency” (priority 2017, dated 2021).

Experiments:
[1] = target: wild phytase YeAPPA, SEQ ID NO.1 (Yersinia enterocolitica, UniProt D9D7K9); test: Kinetic parameters of wild phytase on sodium phytate (double reciprocal method); type: biochemical; details: optimal pH 5, 45° C.
[2] = target: phytase YeAPPA variant YeAPPA-E230P (Glu230 into proline), SEQ ID NO.6 (Yersinia enterocolitica, UniProt D9D7K9, E230P); test: Kinetic parameters of phytase variant YeAPPA-E230P on sodium phytate; details: YeAPPA-E230P vs wild phytase, in words
Protocol: According to embodiment of the present invention, the phytase variant YeAPPA-E230P with amino acid sequence as set forth in SEQ ID NO.6 is obtained by mutation at the 230th site of glutamic acid into proline for phytase with amino acid as set forth in SEQ ID NO.1.
The modified gene encoding the phytase variants were inserted into expression vector pET-22b (+), and transformed into E coli.
The effect of pepsin on the activity of the purified mutant phytase was determined by detecting the remained activity after being treated in pH 2 for 2 hours with the different concentrations of pepsin in a mass ratio to phytase ranging from 1/1000 to 1/1. […] After developing, OD is measured at 700 nm to calculate the phytase activity. 1 unit of phytase activity is determined to be the enzyme amount releasing 1 μmol of phosphate for 1 minute. The absolute value of the measured phytase activity may be calculated based on the standard curve of inorganic phosphate in dilution.

[3] = target: phytase YeAPPA variant YeAPPA-L162G (Leu162 into glycine), SEQ ID NO.3 (Yersinia enterocolitica, UniProt D9D7K9, L162G); test: Kinetic parameters of phytase variant YeAPPA-L162G on sodium phytate; details: YeAPPA-L162G vs wild phytase
[4] = target: phytase YeAPPA variant YeAPPA-L162A (Leu162 into alanine), SEQ ID NO.4 (Yersinia enterocolitica, UniProt D9D7K9, L162A); test: Kinetic parameters of phytase variant YeAPPA-L162A on sodium phytate; details: YeAPPA-L162A vs wild phytase, in words
[5] = target: phytase YeAPPA variant YeAPPA-E230G (Glu230 into glycine), SEQ ID NO.5 (Yersinia enterocolitica, UniProt D9D7K9, E230G); test: Kinetic parameters of phytase variant YeAPPA-E230G on sodium phytate; details: YeAPPA-E230G vs wild phytase
[6] = target: phytase YeAPPA variant YeAPPA-E230R (Glu230 into arginine), SEQ ID NO.7 (Yersinia enterocolitica, UniProt D9D7K9, E230R); test: Kinetic parameters of phytase variant YeAPPA-E230R on sodium phytate; details: YeAPPA-E230R vs wild phytase, in words
[7] = tested on: O=P(O)(O)O[C@H]1[C@H](OP(=O)(O)O)[C@@H](OP(=O)(O)O)[C@H](OP(=O)(O)O)[C@@H](OP(=O)(O)O)[C@H]1OP(=O)(O)O; test: purified protein, by the assay type; details: sodium phytate 0.0625-1.5 mmol/L
[8] = other: YeAPPA-E230G, optimal pH 5, 45° C.
[9] = other: YeAPPA-E230P, optimal pH 5, 50° C.
[10] = other: YeAPPA-E230R, optimal pH 4, 45° C.
[11] = other: YeAPPA-L162A, optimal pH 5, 45° C.
[12] = other: YeAPPA-L162G, optimal pH 5, 45° C.

`O=P(O)(O)O[C@H]1[C@H](OP(=O)(O)O)[C@@H](OP(=O)(O)O)[C@H](OP(=O)(O)O)[C@@H](OP(=O)(O)O)[C@H]1OP(=O)(O)O` [sodium phytate] was tested, and the Kcat/Km [1] was 26 S^−1 mM^−1, the Vmax [1] was 6.4 U mg^−1 and the Kcat ([1]; from theoretical molecular weight) was 4.9 S^−1. The “reaction rate, conversion rate and catalytic efficiency compared with wild phytase” value (from here on “reaction rate … compared with wild phytase”) [2] was “almost same as those of the wild phytase”, the “Catalytic efficiency Kcat/km relative to wild phytase” value [3] was 1.7 times and the “reaction rate … compared with wild phytase” value [4] was “almost same as those of the wild phytase”. The “Catalytic efficiency Kcat/km relative to wild phytase” value [5] was 2.5 times, the “Conversion rate Kcat relative to wild phytase” value [5] was 2.5 times and the “Reaction rate Vmax relative to wild phytase” value [5] was 2.5 times. For the same compound, the “reaction rate … compared with wild phytase” value [6] was “almost same as those of the wild phytase”.

Compound “phytase YeAPPA variant YeAPPA-E230G (Glu230 into glycine), SEQ ID NO.5 (Yersinia enterocolitica; E230G)” has a Km [7, 8] of 190 µM, a Vmax [7, 8] of 16 µmol/min/mg and a kcat [7, 8] of 12 s⁻¹. For the same compound, the kcat/Km [7, 8] was 64000 M⁻¹ s⁻¹.

“phytase YeAPPA variant YeAPPA-E230P (Glu230 into proline), SEQ ID NO.6 (Yersinia enterocolitica; E230P)” showed a Km [7, 9] of 190 µM, a Vmax [7, 9] of 6.7 µmol/min/mg and a kcat [7, 9] of 5.1 s⁻¹. The kcat/Km [7, 9] was 26000 M⁻¹ s⁻¹.

“phytase YeAPPA variant YeAPPA-E230R (Glu230 into arginine), SEQ ID NO.7 (Yersinia enterocolitica; E230R)” showed a Km [7, 10] of 180 µM, a Vmax [7, 10] of 6.3 µmol/min/mg and a kcat [7, 10] of 4.8 s⁻¹. It also gave a kcat/Km [7, 10] of 26000 M⁻¹ s⁻¹.

Compound “phytase YeAPPA variant YeAPPA-L162A (Leu162 into alanine), SEQ ID NO.4 (Yersinia enterocolitica; L162A)” has a Km [7, 11] of 190 µM, a Vmax [7, 11] of 6.5 µmol/min/mg and a kcat [7, 11] of 5 s⁻¹. For the same compound, the kcat/Km [7, 11] was 27000 M⁻¹ s⁻¹.

In the case of “phytase YeAPPA variant YeAPPA-L162G (Leu162 into glycine), SEQ ID NO.3 (Yersinia enterocolitica; L162G)”, the Km [7, 12] was 190 µM, the Vmax [7, 12] was 11 µmol/min/mg and the kcat [7, 12] was 8.2 s⁻¹. The kcat/Km [7, 12] was 43000 M⁻¹ s⁻¹.
